# According to the RNAGym collection of RNA variant scans (doi:10.1093/molbev/msab373):
# B1: Azoarcus group I ribozyme (parent)
# chain: GUGCCUUGCGCCGGGAAACCACGCAAGGGAUGGUGUCAAAUUCGGCGAAACCUAAGCGCCCGCCCGGGCGUAUGGCAACGCCGAGCCAAGCUUCGGCGCCUGCGCCGAUGAAGGUGUAGAGACUAGACGGCACCCACCUAAGGCAAACGCUAUGGUGAAGGCAUAGUCCAGGGAGUGGCGAAAGUCACACAAACCGG
# Variants of: B1
# Assay: reverse-splicing fitness (ratio to wild type); higher = more active; in vitro selection; Mg2+ level not given
# Summary of the method: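 An in vitro group I ribozyme library with randomized positions was T7-transcribed and gel-purified. In triplicate, 10 pmol RNA in EPPS pH 7.5 was reacted with 50 pmoles of a 30-nt RNA substrate for 1 h at 37 °C across several added MgCl2 levels (1–48 mM), then stopped with EDTA. Products were reverse transcribed from a substrate-complementary primer, PCR-amplified and sequenced (HiSeq 4000). Fitness is a variant's read proportion after selection over that before, normalised to wild type.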
row,Variant,reverse-splicing fitness
1,GUGCCUUGCGCCGGGAAACCACGCAAGGGAUGGUGUCAAAUUCGGCGAAACCUAAGCGCCCGCCCGGGCGUAUGGCAACGCCGAGCCAAGCUUCGGCGCCUGCGCCGAUGGAGGUGUAGUGACUAGACGGCACCCACCUAAGGCUAACGCUAUGGUGAAGGCAUAGUCAAGGGAGGGGCGAAAGUCACACAAACCGG,0.00131
2,GUGCCUUGCGCCGGGAAACCACGCAAGGGAUGGUGUCAAAUUCGGCGAAACCUAAGCGCCCGCCCGGGCGUAUGGCAACGCCGAGCCAAGCUUCGGCGCCUGCGCCGAUGGAGGUGUAGUGACUAGACGGCACCCACCUAAGGCUAACGCUAUGGUGAAGGCAUAGUCAAGGGAGCGGCGAAAGUCACACAAACCGG,0.00348
3,GUGCCUUGCGCCGGGAAACCACGCAAGGGAUGGUGUCAAAUUCGGCGAAACCUAAGCGCCCGCCCGGGCGUAUGGCAACGCCGAGCCAAGCUUCGGCGCCUGCGCCGAUGGAGGUGUAGUGACUAGACGGCACCCACCUAAGGCUAACGCUAUGGUGAAGGCAUAGUCAAGGGAGAGGCGAAAGUCACACAAACCGG,0.00236
4,GUGCCUUGCGCCGGGAAACCACGCAAGGGAUGGUGUCAAAUUCGGCGAAACCUAAGCGCCCGCCCGGGCGUAUGGCAACGCCGAGCCAAGCUUCGGCGCCUGCGCCGAUGGAGGUGUAGUGACUAGACGGCACCCACCUAAGGCAAACGAUAUGGUGAAGGCAUAGUCGAGGGAGGGGCGAAAGUCACACAAACCGG,0.00211
5,GUGCCUUGCGCCGGGAAACCACGCAAGGGAUGGUGUCAAAUUCGGCGAAACCUAAGCGCCCGCCCGGGCGUAUGGCAACGCCGAGCCAAGCUUCGGCGCCUGCGCCGAUGGAGGUGUAGUGACUAGACGGCACCCACCUAAGGCAAACGAUAUGGUGAAGGCAUAGUCGAGGGAGCGGCGAAAGUCACACAAACCGG,0.00454
6,GUGCCUUGCGCCGGGAAACCACGCAAGGGAUGGUGUCAAAUUCGGCGAAACCUAAGCGCCCGCCCGGGCGUAUGGCAACGCCGAGCCAAGCUUCGGCGCCUGCGCCGAUGGAGGUGUAGUGACUAGACGGCACCCACCUAAGGCAAACGAUAUGGUGAAGGCAUAGUCGAGGGAGAGGCGAAAGUCACACAAACCGG,0.00675
7,GUGCCUUGCGCCGGGAAACCACGCAAGGGAUGGUGUCAAAUUCGGCGAAACCUAAGCGCCCGCCCGGGCGUAUGGCAACGCCGAGCCAAGCUUCGGCGCCUGCGCCGAUGGAGGUGUAGUGACUAGACGGCACCCACCUAAGGCAAACGAUAUGGUGAAGGCAUAGUCAAGGGAGAGGCGAAAGUCACACAAACCGG,0.00442
8,GUGCCUUGCGCCGGGAAACCACGCAAGGGAUGGUGUCAAAUUCGGCGAAACCUAAGCGCCCGCCCGGGCGUAUGGCAACGCCGAGCCAAGCUUCGGCGCCUGCGCCGAUGGAGGUGUAGUGACUAGACGGCACCCACCUAAGGCAAACGAUAUGGUGAAGGCAUAGUCAAGGGAGCGGCGAAAGUCACACAAACCGG,0.00292
9,GUGCCUUGCGCCGGGAAACCACGCAAGGGAUGGUGUCAAAUUCGGCGAAACCUAAGCGCCCGCCCGGGCGUAUGGCAACGCCGAGCCAAGCUUCGGCGCCUGCGCCGAUGGAGGUGUAGUGACUAGACGGCACCCACCUAAGGCAAACGAUAUGGUGAAGGCAUAGUCAAGGGAGGGGCGAAAGUCACACAAACCGG,0.00195
10,GUGCCUUGCGCCGGGAAACCACGCAAGGGAUGGUGUCAAAUUCGGCGAAACCUAAGCGCCCGCCCGGGCGUAUGGCAACGCCGAGCCAAGCUUCGGCGCCUGCGCCGAUGGAGGUGUAGUGACUAGACGGCACCCACCUAAGGCUAACGUUAUGGUGAAGGCAUAGUCCAGGGAGAGGCGAAAGUCACACAAACCGG,0.265
11,GUGCCUUGCGCCGGGAAACCACGCAAGGGAUGGUGUCAAAUUCGGCGAAACCUAAGCGCCCGCCCGGGCGUAUGGCAACGCCGAGCCAAGCUUCGGCGCCUGCGCCGAUGGAGGUGUAGUGACUAGACGGCACCCACCUAAGGCUAACGUUAUGGUGAAGGCAUAGUCCAGGGAGCGGCGAAAGUCACACAAACCGG,0.279
12,GUGCCUUGCGCCGGGAAACCACGCAAGGGAUGGUGUCAAAUUCGGCGAAACCUAAGCGCCCGCCCGGGCGUAUGGCAACGCCGAGCCAAGCUUCGGCGCCUGCGCCGAUGGAGGUGUAGUGACUAGACGGCACCCACCUAAGGCUAACGUUAUGGUGAAGGCAUAGUCCAGGGAGGGGCGAAAGUCACACAAACCGG,0.0789
13,GUGCCUUGCGCCGGGAAACCACGCAAGGGAUGGUGUCAAAUUCGGCGAAACCUAAGCGCCCGCCCGGGCGUAUGGCAACGCCGAGCCAAGCUUCGGCGCCUGCGCCGAUGGAGGUGUAGUGACUAGACGGCACCCACCUAAGGCAAACGAUAUGGUGAAGGCAUAGUCUAGGGAGAGGCGAAAGUCACACAAACCGG,0.0063
14,GUGCCUUGCGCCGGGAAACCACGCAAGGGAUGGUGUCAAAUUCGGCGAAACCUAAGCGCCCGCCCGGGCGUAUGGCAACGCCGAGCCAAGCUUCGGCGCCUGCGCCGAUGGAGGUGUAGUGACUAGACGGCACCCACCUAAGGCAAACGAUAUGGUGAAGGCAUAGUCUAGGGAGUGGCGAAAGUCACACAAACCGG,0.0125
15,GUGCCUUGCGCCGGGAAACCACGCAAGGGAUGGUGUCAAAUUCGGCGAAACCUAAGCGCCCGCCCGGGCGUAUGGCAACGCCGAGCCAAGCUUCGGCGCCUGCGCCGAUGGAGGUGUAGUGACUAGACGGCACCCACCUAAGGCAAACGAUAUGGUGAAGGCAUAGUCAAGGGAGUGGCGAAAGUCACACAAACCGG,0.00359
16,GUGCCUUGCGCCGGGAAACCACGCAAGGGAUGGUGUCAAAUUCGGCGAAACCUAAGCGCCCGCCCGGGCGUAUGGCAACGCCGAGCCAAGCUUCGGCGCCUGCGCCGAUGGAGGUGUAGUGACUAGACGGCACCCACCUAAGGCAAACGAUAUGGUGAAGGCAUAGUCGAGGGAGUGGCGAAAGUCACACAAACCGG,0.0107
17,GUGCCUUGCGCCGGGAAACCACGCAAGGGAUGGUGUCAAAUUCGGCGAAACCUAAGCGCCCGCCCGGGCGUAUGGCAACGCCGAGCCAAGCUUCGGCGCCUGCGCCGAUGGAGGUGUAGUGACUAGACGGCACCCACCUAAGGCUAACGCUAUGGUGAAGGCAUAGUCGAGGGAGCGGCGAAAGUCACACAAACCGG,0.0178
18,GUGCCUUGCGCCGGGAAACCACGCAAGGGAUGGUGUCAAAUUCGGCGAAACCUAAGCGCCCGCCCGGGCGUAUGGCAACGCCGAGCCAAGCUUCGGCGCCUGCGCCGAUGGAGGUGUAGUGACUAGACGGCACCCACCUAAGGCUAACGCUAUGGUGAAGGCAUAGUCGAGGGAGGGGCGAAAGUCACACAAACCGG,0.00196
19,GUGCCUUGCGCCGGGAAACCACGCAAGGGAUGGUGUCAAAUUCGGCGAAACCUAAGCGCCCGCCCGGGCGUAUGGCAACGCCGAGCCAAGCUUCGGCGCCUGCGCCGAUGGAGGUGUAGUGACUAGACGGCACCCACCUAAGGCUAACGCUAUGGUGAAGGCAUAGUCGAGGGAGAGGCGAAAGUCACACAAACCGG,0.00865
20,GUGCCUUGCGCCGGGAAACCACGCAAGGGAUGGUGUCAAAUUCGGCGAAACCUAAGCGCCCGCCCGGGCGUAUGGCAACGCCGAGCCAAGCUUCGGCGCCUGCGCCGAUGGAGGUGUAGUGACUAGACGGCACCCACCUAAGGCUAACGCUAUGGUGAAGGCAUAGUCUAGGGAGCGGCGAAAGUCACACAAACCGG,0.032
21,GUGCCUUGCGCCGGGAAACCACGCAAGGGAUGGUGUCAAAUUCGGCGAAACCUAAGCGCCCGCCCGGGCGUAUGGCAACGCCGAGCCAAGCUUCGGCGCCUGCGCCGAUGGAGGUGUAGUGACUAGACGGCACCCACCUAAGGCUAACGCUAUGGUGAAGGCAUAGUCUAGGGAGAGGCGAAAGUCACACAAACCGG,0.0203
22,GUGCCUUGCGCCGGGAAACCACGCAAGGGAUGGUGUCAAAUUCGGCGAAACCUAAGCGCCCGCCCGGGCGUAUGGCAACGCCGAGCCAAGCUUCGGCGCCUGCGCCGAUGGAGGUGUAGUGACUAGACGGCACCCACCUAAGGCUAACGCUAUGGUGAAGGCAUAGUCUAGGGAGGGGCGAAAGUCACACAAACCGG,0.00399
23,GUGCCUUGCGCCGGGAAACCACGCAAGGGAUGGUGUCAAAUUCGGCGAAACCUAAGCGCCCGCCCGGGCGUAUGGCAACGCCGAGCCAAGCUUCGGCGCCUGCGCCGAUGGAGGUGUAGUGACUAGACGGCACCCACCUAAGGCAAACGAUAUGGUGAAGGCAUAGUCCAGGGAGUGGCGAAAGUCACACAAACCGG,0.112
24,GUGCCUUGCGCCGGGAAACCACGCAAGGGAUGGUGUCAAAUUCGGCGAAACCUAAGCGCCCGCCCGGGCGUAUGGCAACGCCGAGCCAAGCUUCGGCGCCUGCGCCGAUGGAGGUGUAGUGACUAGACGGCACCCACCUAAGGCUAACGUUAUGGUGAAGGCAUAGUCUAGGGAGGGGCGAAAGUCACACAAACCGG,0.00321
25,GUGCCUUGCGCCGGGAAACCACGCAAGGGAUGGUGUCAAAUUCGGCGAAACCUAAGCGCCCGCCCGGGCGUAUGGCAACGCCGAGCCAAGCUUCGGCGCCUGCGCCGAUGGAGGUGUAGUGACUAGACGGCACCCACCUAAGGCUAACGCUAUGGUGAAGGCAUAGUCCAGGGAGCGGCGAAAGUCACACAAACCGG,0.431
26,GUGCCUUGCGCCGGGAAACCACGCAAGGGAUGGUGUCAAAUUCGGCGAAACCUAAGCGCCCGCCCGGGCGUAUGGCAACGCCGAGCCAAGCUUCGGCGCCUGCGCCGAUGGAGGUGUAGUGACUAGACGGCACCCACCUAAGGCUAACGCUAUGGUGAAGGCAUAGUCCAGGGAGGGGCGAAAGUCACACAAACCGG,0.15
27,GUGCCUUGCGCCGGGAAACCACGCAAGGGAUGGUGUCAAAUUCGGCGAAACCUAAGCGCCCGCCCGGGCGUAUGGCAACGCCGAGCCAAGCUUCGGCGCCUGCGCCGAUGGAGGUGUAGUGACUAGACGGCACCCACCUAAGGCUAACGCUAUGGUGAAGGCAUAGUCCAGGGAGAGGCGAAAGUCACACAAACCGG,0.364
28,GUGCCUUGCGCCGGGAAACCACGCAAGGGAUGGUGUCAAAUUCGGCGAAACCUAAGCGCCCGCCCGGGCGUAUGGCAACGCCGAGCCAAGCUUCGGCGCCUGCGCCGAUGGAGGUGUAGUGACUAGACGGCACCCACCUAAGGCUAACGCUAUGGUGAAGGCAUAGUCUAGGGAGUGGCGAAAGUCACACAAACCGG,0.122
29,GUGCCUUGCGCCGGGAAACCACGCAAGGGAUGGUGUCAAAUUCGGCGAAACCUAAGCGCCCGCCCGGGCGUAUGGCAACGCCGAGCCAAGCUUCGGCGCCUGCGCCGAUGGAGGUGUAGUGACUAGACGGCACCCACCUAAGGCUAACGCUAUGGUGAAGGCAUAGUCAAGGGAGUGGCGAAAGUCACACAAACCGG,0.00636
30,GUGCCUUGCGCCGGGAAACCACGCAAGGGAUGGUGUCAAAUUCGGCGAAACCUAAGCGCCCGCCCGGGCGUAUGGCAACGCCGAGCCAAGCUUCGGCGCCUGCGCCGAUGGAGGUGUAGUGACUAGACGGCACCCACCUAAGGCUAACGCUAUGGUGAAGGCAUAGUCGAGGGAGUGGCGAAAGUCACACAAACCGG,0.0912
